Measurements from patent publication US20170052184A1 (published 2017).
Where a chain is given by its changes, count along the chain named.

T1: HCV Core1-169 (HCV-1, UniProt P26664 1-169)
T1 construct: also called recombinant HCV core antigen
T1 sequence: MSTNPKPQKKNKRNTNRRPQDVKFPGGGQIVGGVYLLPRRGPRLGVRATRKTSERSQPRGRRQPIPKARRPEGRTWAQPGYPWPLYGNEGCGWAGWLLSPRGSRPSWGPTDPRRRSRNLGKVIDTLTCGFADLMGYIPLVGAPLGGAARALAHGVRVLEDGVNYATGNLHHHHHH

T2: HCV Core1-169 recombinant antigen (hepatitis C virus (HCV-1), UniProt P26664 1-169)
T2 sequence: T1 sequence

B1: HCV 208B-826 (antibody, V domains shown)
VH: DVQLVESGGGLVQAGGSRKLSCAASGFPFSSFGMHWVRQAPEKGLEWVASISSRTSKIYYADNLKGRFTISRDNPKNTLFLQMTSLGSEDTAMYYCVRSVFGNSYWFFDVWGAGTTVTVSS
VL: DIVLTQSPATLSVTPGDRVSLSCRASQRIYNYLHWYQQKSHESPRLLTKYASQSISGIPSRFSGSGSGTDFILTINSVETEDFGMYFCQQSNSWPLTFGAGTKLELRR
B2: HCV 208A-207 (antibody, V domains shown)
VH: QGQLQQPGAEFVKPGASLKLSCRASGYTFTSYWIHWVKQRPGQGLEWIGEIDPSDSYINQNQKFRGKATLTVDKSSSTAYMELSGLTSEDSAVYYCARHYYGVLDSWGQGTTLTVSS
VL: B1 VL
B3: HCV 208B-822 (antibody, V domains shown)
VH: QVQLKQSGPGLVQPSQSLSITCTVSGFSLITYGVHWVRQSPGKGLEWLGVIWGGGSTGYNAAFVSRLNITKDNSKSQVFFKMNSLQPDDTAIYYCARNGGATVFDYWGQGTTLTVSS
VL: DIVMTQSPATLSVTPGDRVSLSCRASQTISDYLHWYQQKSHESPRLLIKYASQSISGIPSRFSGSGSGSHFTLSINSVEPEDVGVYYCQNGHSFPWTFGGGTKLEIKR
B4: HCV 208B-911 (antibody, V domains shown)
VH: QVHLQQPGAELVRPGVSVKLSCKASGYTFTTYSINWMKQRPGQGLEWIGNIYPSTSHTNYNQKFRDKATMTVDKSSSTAYMQLSSPTSEDSAVYYCTINAYSMDYWGQGTSVTVSS
VL: QIVLTQSPEIMSASPGEKVTITCSASSSVSFMYWFQQKPGTSPKLWIYITSNLASGVPTRFSGSGSGTSYSLTISRMEAEDAATYYCQQRSSFPYTFGGGTKLEMKR
B5: HCV 208B-547 (antibody, V domains shown)
VH: QVQLQQSGAELAKPGASVKMSCKASGYTFTSNKMHWAKQRPGQGLEWIGYIDPSSGYTEYNQKIKDKATLTADKSSSTAYMQLSSLTSEDSAVYYCTNFAYWGQGTLVTVSA
VL: EVVLTQSPAITAASLGQKVTITCRASSSVSYMHWYRQKSGTSPQPWIYEISTLASGVPTRFRASGSGTSYSLTISSMEAEDAAIYYCQQWNYPLTFGAGTKLELKR
B6: HCV 208A-210 (antibody, V domains shown)
VH: QVQLQQSGPELVKPGASMRISCKASGYTFTSYYVHWIKQRPGQGLEWIGCIYPGDVNTDYNEKFKGKATLTADKSSSTAYMQVSTLTSEDSAIYFCVLYYYGSFAYWGQGTLVTVSA
VL: B5 VL with V2I, K18N, P45L, T52R, L53R, T59A, L104V
B7: HCV 208B-793 (antibody, V domains shown)
VH: EVKLVESGGGLVQPGGSLKLSCAASGFTFSSYAMSWVRQTPERRLEWVTYISNGGGSTYYSDTVKGRFTFSRDNAKNTLYLQMSSLKSEDTAMYYCARHGLGRTGFASWGQGTLVTVSA
VL: DIVMTQSHKFMSTSVGDRVSITCKASQDVGTAVAWYQQKPGQSPKLLIYWASTRHTGVPDRFTGSGSGTDFTLTISNVQSEDLADYFCQQYSNYLTFGAGTKLEVKR
B8: HCV 208B-612 (antibody, V domains shown)
VH: EVQLQQSGPELVKPGASVKMSCKASGYRFTSYVMHWVRQKPGQGLEWIGYIDPHNDDTKYSEKFRGKATLTSDKSSTTAYMELSSLTSEDSAVYYCVRYSYDRDYSPMDYWGQGTSVTVSS
VL: QIVLTQSPTLMSASPGEKVTMTCSASSTVTYIYWYQQKPGSSPRLWMYDTFNLVSGVPARFSGSRSGTSYFLTISSMEGEDAATYYCQQYSDSPYTFGGGTKLEIKR
B9: HCV 208B-672 (antibody, V domains shown)
VH: EVKLVESGGSLVQPGGSLKLSCAASGFNFNTYAMSWVRQTPEKRLEWVAYISNGGGNTYYVDTVKGRFTISRDNAKNTLYLRMSSLKSEDTAMYYCARHGLYWGYSMDYWGQGTSVTVSS
VL: DIQMTQSPSSLSASLGERVSLTCRASQDIGGSINWLQQEPDGTIKRLIYATSSLDSGVPKRFSGSRSGSDYSLTISSLESEDFVDYYCLQYASSPPTFGGGTKLEIKR
B10: HCV 208A-110 monoclonal antibody (antibody, V domains shown)
VH: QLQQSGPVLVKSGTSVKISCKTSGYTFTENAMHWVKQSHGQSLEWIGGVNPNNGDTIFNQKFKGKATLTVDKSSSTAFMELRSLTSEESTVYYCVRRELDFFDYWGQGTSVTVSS
VL: DIVLTQSPASLAVSLGQRATISCRASQSVSTSRYSYMHWYQQKPGQPPKLLIKYASNLESGVPARFSGSGSGTDFTLNIHPVAEEDTAAYYCQHSWEFPFTFGSGTKLEIKR
B11: HCV 208A-557 monoclonal antibody (antibody, V domains shown)
VH: QGQMQQSGAELVKPGASVKLSCKTSGFTFSSSYISWLKQKPGQSLEWIAWIYAGTGNTNYNQKFTDKAQLTVDTSSSTAYMQLSSLTTEDSAIYYCAISGTGFTYWGQGTLVTVSA
VL: B10 VL with V3A, K49E, A83G, A89T, E97D
B12: HCV 208A-293 monoclonal antibody (antibody, V domains shown)
VH: EVQLQQSGPELVKPGASVKISCKASGFTFTEYAMHWMKQSHGKSLEWIGGINPTNGDAIYNQKFKDKAKLTVDRSSSTAYMELRSLTSDDSALFYCARRELDYFPSWGQGTTLTVSS
VL: B10 VL with A12I, Y34F, M37V, Y40I, A64V, T76I, A83E, A89T, Y91F
B13: HCV 208A-692 monoclonal antibody (antibody, V domains shown)
VH: B11 VH with V12A, Y52F
VL: EVLMTQSPLSLPVSLGDQASISCRSSQSLEHSNGNTYLEWFLQRPGQPPKLLIYKVSSRFSGVPDRFSGSGSGTDFTLKISRVEAEDLGVYYCFQGSHVPFTFGSGTKLAIKR

The binders below were run against T1, HCV Core1-169 (assay: EIA, core1-169 captured by mAb 14-153-229).
For B1, the “OD (A492)” value was 0.72 OD. For B2, the “OD (A492)” value was 0.41 OD. B3 was tested, and the “OD (A492)” value was 0.12 OD. With B4 the “OD (A492)” value was 0.14 OD. For B5, the “OD (A492)” value was 1.62 OD. In the case of B6, the “OD (A492)” value is reported as 0.87 OD. With B7 the “OD (A492)” value was 0.17 OD. For B8, the “OD (A492)” value was 1.2 OD. For B9, the “OD (A492)” value was 0.99 OD.

What follows are binders tested against T1, HCV Core1-169 (assay: EIA, core1-169 coated on plate).
In the case of B1, the “OD (A492)” value is reported as 0.65 OD. With B2 the “OD (A492)” value was 0.11 OD. With B3 the “OD (A492)” value was 0.22 OD. With B4 the “OD (A492)” value was 1.18 OD. B5 was tested, and the “OD (A492)” value was 0.46 OD. With B6 the “OD (A492)” value was 0.87 OD. For B7, the “OD (A492)” value was 0.85 OD. B8 was tested, and the “OD (A492)” value was 0.18 OD. With B9 the “OD (A492)” value was 1.77 OD.

Each binder was assayed against T2, HCV Core1-169 recombinant antigen (assay: sandwich EIA, 25 ng/ml core1-169; capture mAb 208B-395-334).
B10 showed an OD492 nm of 0.22 OD492. B11 showed an OD492 nm of 0.28 OD492. B12 showed an OD492 nm of 0.44 OD492. In the case of B13, the OD492 nm is reported as 0.44 OD492.

Each binder was assayed against T2, HCV Core1-169 recombinant antigen (assay: sandwich EIA, 25 ng/ml core1-169; capture mAb 208A-692).
Work on B10 yielded an OD492 nm of 0.14 OD492. B11 was tested, and the OD492 nm was 0.13 OD492. With B12 the OD492 nm was 0.34 OD492. B13 gave an OD492 nm of 0.35 OD492.

The binders below were run against T2, HCV Core1-169 recombinant antigen (assay: sandwich EIA, 25 ng/ml core1-169; capture mAb 208B-1096).
With B10 the OD492 nm was 0.21 OD492. For B11, the OD492 nm was 0.35 OD492. B12 showed an OD492 nm of 0.41 OD492. B13 gave an OD492 nm of 0.38 OD492.

These binders were tested against T2, HCV Core1-169 recombinant antigen (assay: sandwich EIA, 25 ng/ml core1-169; capture mAb 208B-612-226).
Work on B10 yielded an OD492 nm of 0.2 OD492. For B11, the OD492 nm was 0.25 OD492. B12 gave an OD492 nm of 0.37 OD492. Binder B13 has an OD492 nm of 0.37 OD492.

Each binder was assayed against T2, HCV Core1-169 recombinant antigen (assay: sandwich EIA, 25 ng/ml core1-169; capture mAb 208A-293).
B10 gave an OD492 nm of 0.2 OD492. B11 was tested, and the OD492 nm was 0.41 OD492. B12 was tested, and the OD492 nm was 0.49 OD492. B13 showed an OD492 nm of 0.51 OD492.

The binders below were run against T2, HCV Core1-169 recombinant antigen (assay: sandwich EIA, 25 ng/ml core1-169; capture mAb 208B-741).
B10 gave an OD492 nm of 0.2 OD492. For B11, the OD492 nm was 0.38 OD492. For B12, the OD492 nm was 0.5 OD492. B13 was tested, and the OD492 nm was 0.44 OD492.

The binders below were run against T2, HCV Core1-169 recombinant antigen (assay: sandwich EIA, 25 ng/ml core1-169; capture mAb 208A-110).
B10 showed an OD492 nm of 0.18 OD492. Binder B11 has an OD492 nm of 0.44 OD492. B12 showed an OD492 nm of 0.52 OD492. B13 was tested, and the OD492 nm was 0.54 OD492.

Each binder was assayed against T2, HCV Core1-169 recombinant antigen (assay: sandwich EIA, 25 ng/ml core1-169; capture mAb C11-7).
B10 gave an OD492 nm of 0.18 OD492. B11 was tested, and the OD492 nm was 0.22 OD492. With B12 the OD492 nm was 2.87 OD492. With B13 the OD492 nm was 2.92 OD492.

Each binder was assayed against T2, HCV Core1-169 recombinant antigen (assay: sandwich EIA, 25 ng/ml core1-169; capture mAb 208A-557).
B10 gave an OD492 nm of 0.17 OD492. B11 was tested, and the OD492 nm was 0.32 OD492. B12 was tested, and the OD492 nm was 0.52 OD492. Work on B13 yielded an OD492 nm of 0.53 OD492.

What follows are binders tested against T2, HCV Core1-169 recombinant antigen (assay: sandwich EIA, 25 ng/ml core1-169; capture mAb 208A-207-271).
B10 showed an OD492 nm of 0.17 OD492. Work on B11 yielded an OD492 nm of 0.18 OD492. With B12 the OD492 nm was 0.39 OD492. For B13, the OD492 nm was 0.39 OD492.

What follows are binders tested against T2, HCV Core1-169 recombinant antigen (assay: sandwich EIA, 25 ng/ml core1-169; capture mAb C11-9).
In the case of B10, the OD492 nm is reported as 0.13 OD492. Work on B11 yielded an OD492 nm of 0.14 OD492. With B12 the OD492 nm was 2.6 OD492. With B13 the OD492 nm was 2.66 OD492.

The binders below were run against T2, HCV Core1-169 recombinant antigen (assay: sandwich EIA, 25 ng/ml core1-169; capture NC capture mAb).
In the case of B10, the OD492 nm is reported as 0.15 OD492. Work on B11 yielded an OD492 nm of 0.18 OD492. Binder B12 has an OD492 nm of 0.37 OD492. B13 was tested, and the OD492 nm was 0.4 OD492.
